{
  "source": "the array DNA melting data of Ke et al.",
  "data": [
    {"experiment": "melting temperature; melt of duplexes", "details": "sodium 0.0675 M; strand 1 µM", "units": {"Tm": "°C"}, "values": [
      {"substance": "CGACGTGCTGGATGTGCTG+CAGCACATTAAGCACGTCG (((((((((..((((((((+))))))))..)))))))))", "Tm": 54.8},
      {"substance": "CGACGTGCAGAATGTGCTG+CAGCACATTAGGCACGTCG ((((((((..(((((((((+)))))))))..))))))))", "Tm": 54.1},
      {"substance": "CGACGTGCCCGATGTGCTG+CAGCACATGATGCACGTCG ((((((((...((((((((+))))))))...))))))))", "Tm": 48.9},
      {"substance": "CGACGTGCTAGATGTGCTG+CAGCACATAATGCACGTCG ((((((((...((((((((+))))))))...))))))))", "Tm": 50.6},
      {"substance": "CGACGTGCTTAATGTGCTG+CAGCACATCCGGCACGTCG ((((((((...((((((((+))))))))...))))))))", "Tm": 49},
      {"substance": "CGACGTGCATTATGTGCTG+CAGCACATTAGGCACGTCG ((((((((.(.((((((((+)))))))).).))))))))", "Tm": 51.9},
      {"substance": "CGACGTGCTCTATGTGCTG+CAGCACATCTAGCACGTCG (((((((((..((((((((+))))))))..)))))))))", "Tm": 50.6},
      {"substance": "CGACGTGCCCCATGTGCTG+CAGCACATGGCGCACGTCG ((((((((.((((((((((+)))))))))).))))))))", "Tm": 57.3},
      {"substance": "CGACGTGCGTAATGTGCTG+CAGCACATGTAGCACGTCG ((((((((...((((((((+))))))))...))))))))", "Tm": 58.1},
      {"substance": "CGACGTGCGTGATGTGCTG+CAGCACATCGTGCACGTCG ((((((((..(((((((((+)))))))))..))))))))", "Tm": 54.5},
      {"substance": "CGACGTGCAGAATGTGCTG+CAGCACATACTGCACGTCG ((((((((((.((((((((+)))))))).))))))))))", "Tm": 57.8},
      {"substance": "CGACGTGCCGGATGTGCTG+CAGCACATTCTGCACGTCG ((((((((.(.((((((((+)))))))).).))))))))", "Tm": 52.3},
      {"substance": "CGACGTGCCCCATGTGCTG+CAGCACATACAGCACGTCG ((((((((...((((((((+))))))))...))))))))", "Tm": 47.1},
      {"substance": "CGACGTGCTTCATGTGCTG+CAGCACATATAGCACGTCG (((((((((..((((((((+))))))))..)))))))))", "Tm": 51.5},
      {"substance": "CGACGTGCTTTATGTGCTG+CAGCACATGACGCACGTCG ((((((((.(.((((((((+)))))))).).))))))))", "Tm": 47.1},
      {"substance": "CGACGTGCGCCATGTGCTG+CAGCACATTGAGCACGTCG ((((((((.(.((((((((+)))))))).).))))))))", "Tm": 52.6},
      {"substance": "CGACGTGCTAAATGTGCTG+CAGCACATTATGCACGTCG ((((((((..(((((((((+)))))))))..))))))))", "Tm": 53.1},
      {"substance": "CGACGTGCTAAATGTGCTG+CAGCACATGGCGCACGTCG ((((((((...((((((((+))))))))...))))))))", "Tm": 51.2},
      {"substance": "CGACGTGCGGCATGTGCTG+CAGCACATGCGGCACGTCG ((((((((.((((((((((+)))))))))).))))))))", "Tm": 61.7},
      {"substance": "CGACGTGCTCGATGTGCTG+CAGCACATTTGGCACGTCG ((((((((...((((((((+))))))))...))))))))", "Tm": 50.3},
      {"substance": "CGACGTGCGTAATGTGCTG+CAGCACATACGGCACGTCG ((((((((...((((((((+))))))))...))))))))", "Tm": 52.6},
      {"substance": "CGACGTGCGTAATGTGCTG+CAGCACATCAGGCACGTCG ((((((((.(.((((((((+)))))))).).))))))))", "Tm": 51.5},
      {"substance": "CGACGTGCCTGATGTGCTG+CAGCACATACGGCACGTCG (((((((((..((((((((+))))))))..)))))))))", "Tm": 54.1},
      {"substance": "CGACGTGCTCTATGTGCTG+CAGCACATATTGCACGTCG ((((((((..(((((((((+)))))))))..))))))))", "Tm": 50.9},
      {"substance": "CGACGTGCCCAATGTGCTG+CAGCACATAGTGCACGTCG ((((((((.(.((((((((+)))))))).).))))))))", "Tm": 46.2},
      {"substance": "CGACGTGCATGATGTGCTG+CAGCACATGACGCACGTCG ((((((((.(.((((((((+)))))))).).))))))))", "Tm": 46.2},
      {"substance": "CGACGTGCACTATGTGCTG+CAGCACATTCAGCACGTCG ((((((((...((((((((+))))))))...))))))))", "Tm": 43.4},
      {"substance": "CGACGTGCTACATGTGCTG+CAGCACATTGTGCACGTCG ((((((((...((((((((+))))))))...))))))))", "Tm": 48.7},
      {"substance": "CGACGTGCGAAATGTGCTG+CAGCACATAGGGCACGTCG ((((((((...((((((((+))))))))...))))))))", "Tm": 49.9},
      {"substance": "CGACGTGCACGATGTGCTG+CAGCACATTACGCACGTCG ((((((((...((((((((+))))))))...))))))))", "Tm": 46},
      {"substance": "CGACGTGCTTTATGTGCTG+CAGCACATGTGGCACGTCG ((((((((...((((((((+))))))))...))))))))", "Tm": 49.6},
      {"substance": "CGACGTGCCCGATGTGCTG+CAGCACATTTCGCACGTCG ((((((((...((((((((+))))))))...))))))))", "Tm": 47.6},
      {"substance": "CGACGTGCATAATGTGCTG+CAGCACATATCGCACGTCG ((((((((...((((((((+))))))))...))))))))", "Tm": 48.6},
      {"substance": "CGACGTGCAACATGTGCTG+CAGCACATCGCGCACGTCG ((((((((...((((((((+))))))))...))))))))", "Tm": 47.7},
      {"substance": "CGACGTGCCGTATGTGCTG+CAGCACATATAGCACGTCG ((((((((..(((((((((+)))))))))..))))))))", "Tm": 52.1},
      {"substance": "CGACGTGCAGGATGTGCTG+CAGCACATGAAGCACGTCG ((((((((...((((((((+))))))))...))))))))", "Tm": 50.3},
      {"substance": "CGACGTGCACTATGTGCTG+CAGCACATTGGGCACGTCG ((((((((.(.((((((((+)))))))).).))))))))", "Tm": 53.3},
      {"substance": "CGACGTGCCGTATGTGCTG+CAGCACATGTGGCACGTCG (((((((((..((((((((+))))))))..)))))))))", "Tm": 55.7},
      {"substance": "CGACGTGCTAAATGTGCTG+CAGCACATGTTGCACGTCG ((((((((.(.((((((((+)))))))).).))))))))", "Tm": 52.6},
      {"substance": "CGACGTGCAAGATGTGCTG+CAGCACATCGCGCACGTCG ((((((((..(((((((((+)))))))))..))))))))", "Tm": 58.4},
      {"substance": "CGACGTGCAACATGTGCTG+CAGCACATCATGCACGTCG (((((((((..((((((((+))))))))..)))))))))", "Tm": 49},
      {"substance": "CGACGTGCCCAATGTGCTG+CAGCACATCAAGCACGTCG ((((((((...((((((((+))))))))...))))))))", "Tm": 48.9},
      {"substance": "CGACGTGCGAGATGTGCTG+CAGCACATCGCGCACGTCG (((((((((.(((((((((+))))))))).)))))))))", "Tm": 62.5},
      {"substance": "CGACGTGCGGAATGTGCTG+CAGCACATACAGCACGTCG ((((((((.(.((((((((+)))))))).).))))))))", "Tm": 54.9},
      {"substance": "CGACGTGCGCCATGTGCTG+CAGCACATCGCGCACGTCG ((((((((((.((((((((+)))))))).))))))))))", "Tm": 58.3},
      {"substance": "CGACGTGCATTATGTGCTG+CAGCACATGATGCACGTCG ((((((((((.((((((((+)))))))).))))))))))", "Tm": 58.1},
      {"substance": "CGACGTGCATAATGTGCTG+CAGCACATTTAGCACGTCG ((((((((..(((((((((+)))))))))..))))))))", "Tm": 53.2},
      {"substance": "CGACGTGCGGCATGTGCTG+CAGCACATAGGGCACGTCG ((((((((...((((((((+))))))))...))))))))", "Tm": 49.5},
      {"substance": "CGACGTGCGGGATGTGCTG+CAGCACATTGTGCACGTCG ((((((((...((((((((+))))))))...))))))))", "Tm": 49.4},
      {"substance": "CGACGTGCTGTATGTGCTG+CAGCACATATCGCACGTCG ((((((((..(((((((((+)))))))))..))))))))", "Tm": 50.9},
      {"substance": "CGACGTGCGAAATGTGCTG+CAGCACATTTCGCACGTCG (((((((((((((((((((+)))))))))))))))))))", "Tm": 64.7},
      {"substance": "CGACGTGCCATATGTGCTG+CAGCACATCAGGCACGTCG (((((((((..((((((((+))))))))..)))))))))", "Tm": 53.5}
    ]}
  ]
}
